The values below come from patent US5432156A, “Therapeutic agent for digestive tract diseases” (Nisshin Flour Milling Co., Ltd., priority 1993, dated 1995).

One data set has as its system male BALB/c mice. Put plainly: Intraperitoneal administration to mice, observation of appearance. It counts as in vivo. Conditions: 10 mg/kg intraperitoneally, 6 weeks age.
A further data set deals with intestinal mucosae. Put plainly: Example 1: nutritional (trophic) effect on the intestinal mucosae of rats fed an elemental nutrition. The format is in vivo, male SD rats. The procedure:
An experiment was performed in male SD rats weighing 140-160 g which had been fed on standard food under light-dark condition of a cycle of 12 hours. The food which was replaced by an elemental nutrition (Elental®, Morishita-Roussel Japan) was taken ad lib., and remained unchanged until the experiment was finished. After feeding on the component nutrition for 3 days, administration of glicentin prepared as described below was started.
Gelatin was dissolved in warm water to a weight ratio of 16%, and the solution autoclaved and cooled to room temperature. To 40 ml of the gelatin solution was added a solution of 1 mg of glicentin in 10 ml of distilled water with stirring at room temperature. The mixture was divided into test tubes, freeze dried and stored for use.
The gelatin solution was subcutaneously given at a dose of 10 μg per glicentin every 12 hours for 7 days to examine a nutritional effect of glicentin on the intestinal mucosae. A similar gelatin solution containing no glicentin was given for the same period of time as a control for comparison. Twelve hours after completion of the final administration, the rats were sacrificed and subjected to removal of the small intestine in the region from the Treitz's ligamentum to the cecum. The removed small intestine was cut at the central site to separate it into the jejunum and the ileum. The lumen of each of the intestinal tracts was gently washed with an aqueous physiological saline solution. The intestinal tracts were longitudinally incised, respectively, and tissues were removed of a portion of the jejunum in proximity to the duodenum, a portion of the ileum in proximity to the cecum and a portion around the boundary between the jejunum and the ileum and fixed in a 3.7% formalin solution as the proximal, distal and middle sites of the small intestine, respectively. Mucosae were collected by ablation with a spatula from the remainder of the intestinal tracts and weighed, respectively.
The tissues fixed in the formalin solution were embedded in paraffin to form a preparation which was stained with hematoxylin-eosin and measured for height of the villi using an optical microscope.

The next data set relates to intestinal mucosa. Put plainly: Example 2: weight of intestinal mucosa in rats, glicentin compared with related peptides. Conditions: 1 nmol per rat s.c. It counts as in vivo.
The subject of data set [1] is motility of the digestive tracts. Kind of data set: Example 3: motility of the digestive tracts after meal in dogs (strain gauge transducers). The format is in vivo, hybrid dogs. The procedure: An experiment was performed as described below in order to examine the action of glicentin on a motility of the digestive tracts after meal.
Six hybrid dogs weighing 16-18 kg were sutured with strain gauge transducers (manufactured by Star Medical, F121S) at a site of the gastric antrum 4 cm from the pyloric ring, a site of the duodenum for the main incurrent pancreatic duct and a site of the jejunum 10 cm from the Treitz's ligamentum, respectively, to measure the contractile force intensity of the circular muscle. Recovery period for the suture was 2 weeks.
Three of the 6 dogs were intravenously given over 1 hour 15 ml of a physiological saline solution in which 400 pmol of glicentin had been dissolved per kg of bodyweight. The remaining three received an aqueous physiological solution containing no glicentin in the same way as above as a control for comparison. The dogs were fed on 15 g of a solid diet (SD®, manufactured by Oriental Yeast K.K.) and 15 g of Vitaone® (manufactured by Nihon Pet Food K.K. and Kyodo Shiryo K.K.) per kg of bodyweight simultaneously with the intravenous administration.
Then, the motor activity of the digestive tracts and length of the post-feed period were measured. Intensity of the contraction in the post-feed period was integrated for the two-hour measurements and evaluated in comparison with the mean level of the signal peak in phase 3 motor activity of the intestinal tracts in hunger and taken as a motor index.

[2] abbreviates: 10 μg s.c. every 12 hours for 7 days.
Where [3] appears, read: 10 μg s.c. every 12 hours for 7 days, hematoxylin-eosin, optical microscope.
Setting [4] is: 400 pmol/kg i.v. over 1 hour, post-feed contraction integrated over two hours, relative to phase 3 peak in hunger.
The mark [5] stands for this setting: 400 pmol/kg i.v., versus control.

B1: glicentin (protein)
chain: RSLQDTEEKSRSFSASQADPLSDPDQMNEDKRHSQGTFTSDYSKYLDSRRAQDFVQWLMNTKRNRNNIA
notes: peptide of 69 amino acid residues, one of the enteroglucagons; human glicentin prepared by genetic engineering procedure
With B1, the change in appearance entry with male BALB/c mice is “no change in appearance is observed”. Also, in the data set with intestinal mucosae (setting [2]), the Ileal mucosal weight was 1.04 g, the “Ileal mucosal weight per 100 g bodyweight” value is 0.57 g/100 g bodyweight, the Jejunal mucosal weight was 1.3 g and the “Jejunal mucosal weight per 100 g bodyweight” value turned out to be 0.75 g/100 g bodyweight. In addition, in the data set on intestinal mucosae (setting [2]), the “Length of small intestine” value is given as 107.0 cm, the “Length of small intestine per 100 g bodyweight” value is 66.4 cm/100 g bodyweight, the “Whole small intestinal mucosal weight” value is 2.38 g and the “Whole small intestinal mucosal weight per 100 g bodyweight” value came out at 1.32 g/100 g bodyweight. Moreover, in the data set with intestinal mucosae (setting [3]), the “Villous height in distal intestine” value was 216 ± 8.4 μm, the “Villous height in middle intestine” value came to 354 ± 7.5 μm and the “Villous height in proximal intestine” value is recorded as 546 ± 18.6 μm. Moreover, in the data set on intestinal mucosae (versus control group), the “effect on ileal mucosa (in words)” value is “tendency to increase”; the “effect on jejunal mucosal weight (in words)” value is “significantly increases”; the “effect on length of the small intestine (in words)” value is recorded as “tendency to increase”; the “effect on whole small intestinal mucosal weight including jejunum and ileum (in words)” value is given as “significantly increases”. Also, the “effect on the weight of intestinal mucosa (in words)” value in the data set on intestinal mucosa (versus control group) was “significantly increases”. In the data set on intestinal mucosa (third quarter of the small intestine from the duodenum), this molecule came in with an Intestinal mucosal weight of 0.614 ± 0.025 g. In addition, the “Length of post-feed period” value in data set [1] (400 pmol/kg i.v. over 1 hour, given with feeding) came out at 13.6 ± 1.0 h. Moreover, in data set [1] (setting [4]), the “Motor index, duodenum” value came to 0.675 ± 0.4; the “Motor index, jejunum” value is reported as 1.087 ± 0.2; the “Motor index, stomach vestibulum” value is given as 0.878 ± 0.1. For the same molecule, in data set [1] (setting [5]), the “influence upon the length of the post-feed period (in words)” value is given as “no influence” and the “post-feed motility in the vestibulum of stomach (in words)” value is “inhibited”.
